According to article PMC5557857 (2017):

How the values were obtained:
[1] = biological target: epidermal growth factor receptor 2 (HER2) expressed on SKOV3 cells (human (endogenous in SKOV3)) (UniProt P04626); test: split reporter (BiFC, NanoBiT); TEC screen: HER2-expressing SKOV3 cells incubated 1 hr at ambient temperature with clarified lysates of one β9 fusion and one β10 fusion (PBS + 1% BSA), washed 3 times, luminescence 30 min after Δ11S lysate (1:20) and Nano-Glo substrate; signal-to-background, average of three days
[2] = biological target: T1, β10 peptide (synthetic) (Oplophorus gracilirostris, Synthetic 11-mer. The sequence is only in Table S1, so the high-affinity NanoBiT peptide 86 (HiBiT-type) variant of strand 10 is assumed. Termini are not stated.); test: luminescence complementation, 10 uM Nano-Glo substrate
T1 chain: VSGWRLFKKIS

## 9.29-β10 (DARPin 9.29 with β10 at the C-terminus) (designed binder)
[1]
  TEC signal-to-background with PertH-β9: 346
  TEC signal-to-background with β9-G3: 122
  TEC signal-to-background with β9-L73J: 597
  TEC signal-to-background with β9-LPert: 265

## β10-G3 (DARPin G3 with β10 at the N-terminus) (designed binder)
[1]
  TEC signal-to-background with β9-L73J: 197

## G3-β9 (DARPin G3 with β9 at the C-terminus) (designed binder)
[1]
  TEC signal-to-background with PertH-β10: 122
  TEC signal-to-background with β10-L73J: 126

## β9-9.29 (DARPin 9.29 with β9 at the N-terminus) (designed binder)
[1]
  TEC signal-to-background with PertH-β10: 671
  TEC signal-to-background with β10-L73J: 173

## β9-G3 (DARPin G3 with β9 at the N-terminus) (designed binder)
[1]
  TEC signal-to-background with 9.29-β10: 122
  TEC signal-to-background with 73JH-β10: 219

## G3-β10 (DARPin G3 with β10 at the C-terminus) (designed binder)
[1]
  TEC signal-to-background with PertH-β9: 103
  TEC signal-to-background with β9-L73J: 1360
  TEC signal-to-background with β9-LPert: 353

B1: 11S (beta-strands 1-9 of NanoLuc, main fragment of NanoBiT) (domain or fragment)
chain: MVFTLEDFVGDWEQTAAYNLDQVLEQGGVSSLLQNLAVSVTPIQRIVRSGENALKIDIHVIIPYEGLSADQMAQIEEVFKVVYPVDDHHFKVILPYGTLVIDGVTPNMLNYFGRPYEGIAVFDGKKITVTGTLWNGNKIIDERLITPDGSMLFRVTINS
[2]
  Kd: 4 nM
